B1: WT-M14ΔGK (humanized PM-1 variable region, M14ΔGK constant region) (antibody)
heavy: QVQLQESGPGLVRPSQTLSLTCTVSGYSITSDHAWSWVRQPPGRGLEWIGYISYSGITTYNPSLKSRVTMLRDTSKNQFSLRLSSVTAADTAVYYCARSLARTTAMDYWGQGSLVTVSSASTKGPSVFPLAPSSKSTSGGTAALGCLVKDYFPEPVTVSWNSGALTSGVHTFPAVLQSSGLYSLSSVVTVPSSNFGTQTYTCNVDHKPSNTKVDKTVERKSCVECPPCPAPPVAGPSVFLFPPKPKDTLMISRTPEVTCVVVDVSHEDPEVQFNWYVDGVEVHNAKTKPREEQFNSTFRVVSVLTVVHQDWLNGKEYKCKVSNKGLPSSIEKTISKAKGQPREPQVYTLPPSREEMTKNQVSLTCLVKGFYPSDIAVEWESNGQPENNYKTTPPVLDSDGSFFLYSKLTVDKSRWQQGNVFSCSVMHEALHNHYTQKSLSLSP
light: DIQMTQSPSSLSASVGDSVTITCQASQDISSYLNWYQQKPGKAPELLIYYGSELHSGVPSRFSGSGSGTDFTFTISSLEAEDAATYYCQQGNSLPYTFGQGTKVEIE
notes: copies: 2 + 2
B2: WT-M44 (humanized PM-1 antibody, IgG1 constant region with alanine at position 434, EU numbering) (antibody)
heavy: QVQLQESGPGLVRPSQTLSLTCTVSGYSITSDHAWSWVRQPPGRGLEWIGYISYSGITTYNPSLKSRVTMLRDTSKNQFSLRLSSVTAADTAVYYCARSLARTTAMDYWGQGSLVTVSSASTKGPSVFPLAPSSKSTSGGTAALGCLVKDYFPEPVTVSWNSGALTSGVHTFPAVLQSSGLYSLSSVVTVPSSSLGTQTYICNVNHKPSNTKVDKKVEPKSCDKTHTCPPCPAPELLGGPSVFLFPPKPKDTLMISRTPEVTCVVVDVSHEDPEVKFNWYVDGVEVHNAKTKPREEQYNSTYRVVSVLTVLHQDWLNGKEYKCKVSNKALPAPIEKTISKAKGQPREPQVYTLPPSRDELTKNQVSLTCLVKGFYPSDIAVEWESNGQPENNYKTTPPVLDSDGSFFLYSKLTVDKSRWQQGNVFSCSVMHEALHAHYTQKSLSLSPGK
light: DIQMTQSPSSLSASVGDSVTITCQASQDISSYLNWYQQKPGKAPELLIYYGSELHSGVPSRFSGSGSGTDFTFTISSLEAEDAATYYCQQGNSLPYTFGQGTKVEIE
notes: copies: 2 + 2
B3: WT-M58 (humanized PM-1 variable region, M58 constant region) (antibody)
heavy: QVQLQESGPGLVRPSQTLSLTCTVSGYSITSDHAWSWVRQPPGRGLEWIGYISYSGITTYNPSLKSRVTMLRDTSKNQFSLRLSSVTAADTAVYYCARSLARTTAMDYWGQGSLVTVSSASTKGPSVFPLAPSSKSTSGGTAALGCLVKDYFPEPVTVSWNSGALTSGVHTFPAVLQSSGLYSLSSVVTVPSSNFGTQTYTCNVDHKPSNTKVDKTVERKSCVECPPCPAPPVAGPSVFLFPPKPKDTLMISRTPEVTCVVVDVSQEDPEVQFNWYVDGVEVHNAKTKPREEQFNSTFRVVSVLTVVHQDWLNGKEYKCKVSNKGLPAPIEKTISKTKGQPREPQVYTLPPSQEEMTKNQVSLTCLVKGFYPSDIAVEWESNGQPENNYKTTPPMLDSDGSFFLYSKLTVDKSRWQEGNVFSCSVMHEALHNHYTQKSLSLSP
light: DIQMTQSPSSLSASVGDSVTITCQASQDISSYLNWYQQKPGKAPELLIYYGSELHSGVPSRFSGSGSGTDFTFTISSLEAEDAATYYCQQGNSLPYTFGQGTKVEIE
notes: copies: 2 + 2
B4: WT-M73 (humanized PM-1 variable region, M73 constant region) (antibody)
heavy: QVQLQESGPGLVRPSQTLSLTCTVSGYSITSDHAWSWVRQPPGRGLEWIGYISYSGITTYNPSLKSRVTMLRDTSKNQFSLRLSSVTAADTAVYYCARSLARTTAMDYWGQGSLVTVSSASTKGPSVFPLAPSSKSTSGGTAALGCLVKDYFPEPVTVSWNSGALTSGVHTFPAVLQSSGLYSLSSVVTVPSSNFGTQTYTCNVDHKPSNTKVDKTVERKSCVECPPCPAPPVAGPSVFLFPPKPKDTLMISRTPEVTCVVVDVSQEDPEVQFNWYVDGVEVHNAKTKPREEQFNSTFRVVSVLTVVHQDWLNGKEYKCKVSNKGLPAPIEKTISKTKGQPREPQVYTLPPSQEEMTKNQVSLTCLVKGFYPSDIAVEWESNGQPENNYKTTPPMLDSDGSFFLYSKLTVDKSRWQEGNVFSCSVMHEALHAHYTQKSLSLSP
light: DIQMTQSPSSLSASVGDSVTITCQASQDISSYLNWYQQKPGKAPELLIYYGSELHSGVPSRFSGSGSGTDFTFTISSLEAEDAATYYCQQGNSLPYTFGQGTKVEIE
notes: copies: 2 + 2

Columns and labels:
[1] = target: T1, soluble human FcRn (complex of FcRn extracellular domain and β2-microglobulin) (human, UniProt P55899 24-290; P16213 21-119); assay: SPR (Biacore 3000), antibody captured on Protein L or anti-human kappa antibody, human FcRn as analyte, pH 6.0, steady state affinity
T1 construct: The stated ranges are those of the expressed constructs and contain the signal regions; Expressed in HEK293H cells, purified on IgG Sepharose and HiTrap Q; also called hFcRn
Method: (§1) The binding to human FcRn was assessed using Biacore 3000. […] Human FcRn was then injected and the binding of the human FcRn to antibody was assessed. The affinity was computed using BIAevaluation Software. The obtained sensorgram was used to calculate the amount of hFcRn bound to the antibody immediately before the end of human FcRn injection. The affinity of the antibody for human FcRn was calculated by fitting with the steady state affinity method.

[2] = target: T1, soluble human FcRn (complex of FcRn …); assay: SPR (Biacore 3000), human FcRn, pH 6.0, steady state affinity
Method: as §1

[3] = target: T1, soluble human FcRn (complex of FcRn …); assay: SPR (Biacore 3000), method of Example 6: captured antibody, human FcRn as analyte, pH 6.0, steady state affinity
Method: as §1

T1 sequence (P55899 24-290 limits assumed, chain 1 of 2): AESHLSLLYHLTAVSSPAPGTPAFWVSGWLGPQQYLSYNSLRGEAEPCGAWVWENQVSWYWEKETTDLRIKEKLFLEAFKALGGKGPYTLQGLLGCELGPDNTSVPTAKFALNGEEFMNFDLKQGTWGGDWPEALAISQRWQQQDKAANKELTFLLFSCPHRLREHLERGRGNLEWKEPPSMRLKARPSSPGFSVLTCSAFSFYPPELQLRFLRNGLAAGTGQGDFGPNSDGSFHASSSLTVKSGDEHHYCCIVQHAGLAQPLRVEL
T1 sequence (P16213 21-119 limits assumed, chain 2 of 2): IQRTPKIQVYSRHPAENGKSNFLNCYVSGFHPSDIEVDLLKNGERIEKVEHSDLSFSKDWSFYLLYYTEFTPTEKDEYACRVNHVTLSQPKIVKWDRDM

Binder | Kd [1] | binding as a multiple of that of WT-IgG1 [2] | Kd [3]
B1 | 1.85 µM | – | –
B2 | 0.59 µM | ~2.7 times that of WT-IgG1 | –
B3 | 1.17 µM | ~1.4 times that of WT-IgG1 | 1.03 µM
B4 | 0.42 µM | ~3.8 times that of WT-IgG1 | –
